Consider one substance from patent US10869932B2, “Compositions and methods for modifying the surface of cells and methods of use” (UNIVERSITY OF UTAH RESEARCH FOUNDATION, priority 2014, dated 2020).

This assay concerns the target SDF-1 (Homo sapiens, UniProt P48061). As to the kind of experiment: SDF-1 binding to rCXCR4 on the surface of MSCs. The settings on record: FITC-SDF-1, 30 minutes at 4° C. The class given is cell-based. On the procedure: FITC-labeled rSDF-1 (FITC-SDF-1) and rhodamine-labeled rCXCR4 (Rho-CXCR4) were prepared according to the manufacturer's protocol. MSCs were then modified with DMPE-PEG-Rho-CXCR4 or DMPE-PEG-CXCR4. Modified MSCs and non-modified MSCs were incubated with FITC-SDF-1 for 30 minutes of incubation at 4° C. under gentle shaking. […] In order to avoid unknown effects of rhodamine on the interaction between SDF-1 and CXCR4, FITC-SDF-1 was added to MSCs modified with DMPE-PEG-CXCR4. […] Weak SDF-1 intensity was detected on the surface of the non-modified MSCs (see FIG. 12; Control+FITC-SDF-1).
Additional evidence of SDF-1 binding to CXCR4 with CXCR4 detection on the surface of the MSC was achieved by the same methods as employed in the previous experiment. MSCs were modified with DMPE-PEG-CXCR4 and the modified MSCs were incubated with FITC-SDF-1.

SDF-1, sequence (P48061 22-93, species assumed): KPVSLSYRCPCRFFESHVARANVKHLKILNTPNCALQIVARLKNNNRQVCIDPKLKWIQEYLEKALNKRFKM

In the case of “DMPE-PEG-Rho-CXCR4: DMPE-PEG conjugated with rhodamine-labeled rCXCR4”, the “SDF-1 binding on the surface of modified MSCs (confocal)” value is reported as “FITC-SDF-1 was co-localized with CXCR4”.
